Blank lines part the entries; values can stand above or below the binder they belong to.
Legend:
[1] = molecular target: T1, human KCNQ1 (expressed together with KCNE1 as a separate chain; IKs channel) (human, UniProt P51787 1-676); assay: cell-based or functional assay
T1 sequence: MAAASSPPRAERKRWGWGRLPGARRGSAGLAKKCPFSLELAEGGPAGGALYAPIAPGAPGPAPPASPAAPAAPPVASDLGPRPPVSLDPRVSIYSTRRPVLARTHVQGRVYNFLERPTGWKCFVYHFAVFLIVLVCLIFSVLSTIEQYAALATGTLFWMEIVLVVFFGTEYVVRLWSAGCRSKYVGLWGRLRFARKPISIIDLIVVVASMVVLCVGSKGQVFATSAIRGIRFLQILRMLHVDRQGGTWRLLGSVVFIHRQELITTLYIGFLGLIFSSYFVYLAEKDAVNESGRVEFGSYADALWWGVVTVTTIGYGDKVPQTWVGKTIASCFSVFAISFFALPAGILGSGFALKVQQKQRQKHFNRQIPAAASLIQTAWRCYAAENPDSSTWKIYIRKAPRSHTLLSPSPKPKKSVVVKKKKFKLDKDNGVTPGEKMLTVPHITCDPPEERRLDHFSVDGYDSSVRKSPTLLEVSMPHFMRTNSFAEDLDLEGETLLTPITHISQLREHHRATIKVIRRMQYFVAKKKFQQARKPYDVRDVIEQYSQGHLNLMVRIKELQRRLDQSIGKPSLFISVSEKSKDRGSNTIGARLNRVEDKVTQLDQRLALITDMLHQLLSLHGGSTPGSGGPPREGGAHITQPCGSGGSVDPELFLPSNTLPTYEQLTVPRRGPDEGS

[2] = molecular target: T2, N-terminally biotinylated KCNQ1 peptide (Nterm-Biotin-(CH2O)4-AEKDAVNESGRVEFGSYADA-Cterm) (human, N-terminal Biotin-(CH2O)4-); assay: BLI (Octet RED96), biotinylated peptide on streptavidin tips, antibody in solution, 1:1 model, duplicate
T2 construct: Immobilised on streptavidin biosensor tips for Octet BLI
T2 peptide: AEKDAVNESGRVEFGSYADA
Method: (§1) FIG. 16. Kinetic measurements of mAb binding to 20aa KCNQ1 target sequence.
(§2) Binding kinetics of KCNQ1 peptide interactions with IgG2a 8-F11-D4 was monitored using Octet RED96 Bio-Layer Interferometry (Sartorius). All measurements were performed in duplicate at 25° C. in an assay-specific buffer containing 1× PBS pH 7.4, 1× kinetic buffer and 1% BSA using 96-well plates with orbital shake speed of 1,000 rpm. The binding curves were generated by first immobilizing 1 mM N-terminally biotinylated KCNQ1 peptide on streptavidin-coated biosensor tips for 2.5 min followed by a baseline equilibration step for 5 min. The biosensor tips were then submerged in wells containing […] mAbs for 5 min to monitor formation of the mAb-peptide complex, followed by antibody dissociation in the assay buffer for 5 minutes. A shift in the interference pattern of white light reflected from the surface of a biosensor tip caused by antibody binding/dissociation was monitored in real time. Antibody-peptide interactions were analyzed by a 1:1 binding model and the dissociation constants (KDs) were determined as ratios of dissociation (koff) and association (kon) binding rate constants derived using non-linear fitting model in GraphPad Prism.

[3] = molecular target: T2, N-terminally biotinylated KCNQ1 peptide …; assay: bio-layer interferometry (Octet RED96), biotinylated KCNQ1 peptide on streptavidin tips, 1:1 model, mean of duplicate runs
Method: as §1, §2

[4] = molecular target: T3, KCNQ1 channel peptide (AEKDAVNESGRVEFGSYADA) (human); assay: SPR (Biacore 8K), antibody immobilised on CM5 chip, peptide as analyte, mean of triplicate
T3 construct: Coupled to KLH for immunisation; the free peptide (2.12 kDa) was the analyte in SPR; also called KCNQ1 peptide; antigenic peptide
T3 peptide: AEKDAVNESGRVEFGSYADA
Method: Antibody kinetics and affinity measurement: A Biacore 8K Surface Plasmon Resonance (SPR) instrument (GE Healthcare Life Sciences, ProteoGenix, France) equipped with a CM5 sensor chip was used to generate binding kinetic rate and affinity constants at room temperature. IgG2a 8-F11-D4 (10 μg/ml) was immobilized onto the CM5 chip by amide coupling, following manufacturer's protocol. The surface chemistry was activated using 1-Ethyl-3-(3-dimethylaminopropyl) carbodiimide hydrochloride (EDC) and sulfo-N-Hydroxysuccinimide (NHS) reagents prior to immobilization, while ethanolamine was used to deactivate remaining active esters. Samples were prepared in HBS-EP⁺ buffer composed of 10 mM HEPES (pH 7.4), 150 mM NaCl, 3 mM EDTA, 0.05% Surfactant P20. The antigenic peptide was suspended in 20 mM sodium acetate (pH 4.5) and glycine-HCl (pH 1.5) was used as regeneration buffer. […] This level was considered optimal based upon the calculation of the maximal response (Rₘₐₓ) of analyte (antigenic peptide) to ligand (IgG2a): Rₘₐₓ=(MWanalyte/MWligand)×RL×Sₘ, where MWanalyte and MWligand are the molecular weights of the peptide (analyte, 2.12 kDa) to the antibody (ligand, 180 kDa as determined by SDS-PAGE), respectively, RL is the target amount of ligand bound in RU, and Sₘ represents the stoichiometric ratio of the analyte/ligand interaction (Sₘ equals 1). A theoretical Rₘₐₓ of […] is achieved at 10′000 RU of ligand. […] Injections were performed in triplicate to assess for the assay's reproducibility. All data were processed and analyzed with Biacore 8K Evaluation Software.

half-maximal effective concentration (EC50) of APD90 reduction in hiPSC-CMCs [1]: 5.7 µg/mL
mean IKs step current at +70 mV, whole-cell patch clamp, CHO cells stably expressing human IKs channels, 30 µg/ml IgG [1]: 1.6 fold
mean IKs tail current upon repolarization to -40 mV, whole-cell patch clamp, CHO cells stably expressing human IKs channels, 30 µg/ml IgG [1]: 1.5 fold
Kd [2]: ~4 nM
Kd [3]: 3.7 nM
Kd [4]: 9.02 nM
koff [4]: 0.00082 s⁻¹
kon [4]: 90900 M⁻¹ s⁻¹
B1: IgG2a 8-F11-D4 monoclonal antibody (antibody, V domains shown)
VH: EVKLVESGGGLVKPGGSLQLSCAASGFTFSNYAMSWVRQTPEKRLEWVASISGGGNTYYPDSVKGRFTISRDNARNILYLQMNSLRSEDTAMYYCVRATRDYFDYWGQGTTLTVSS
VL: DIVMSQSPSSLAVSVGEKVTMSCKSSQSLLNSRTRKSYLAWYQQKPGQSPKLLIYWASTRESGVPDRFTGSGSGTDFTLTISSVQAEDLAVYSCEQSYYLYTFGGGTKLEIK
notes: also called mouse monoclonal IgG2a 8-F11-D4; murine monoclonal anti-KCNQ1 antibody IgG2a 8-F11-D4

IKs step current at +70 mV versus control, CHO cells stably expressing human IKs, 30 µg/ml recombinant antibody [1]: 1.6 fold
IKs tail current versus control, CHO cells stably expressing human IKs, 30 µg/ml recombinant antibody [1]: 1.5 fold
B2: recombinant murine IgG2a 8-F11-D4 antibody (antibody, V domains shown)
VH: B1 VH
VL: B1 VL
